The term Kd denotes the concentration at which binding is half-saturated. Broadly, the koff is the rate constant with which the complex falls apart. What is called kon is the second-order rate constant of association. As a reminder, the IC50 is the concentration at which inhibition is half-maximal.

The target of one assay is IL-4R on HEK-Blue cells (human, UniProt P24394 26-825). The experiment in a line: cell-based or functional assay.
A further assay deals with T1, cynomolgus IL-4R-Fc (cynomolgus monkey (Macaca fascicularis), UniProt A0A2K5V580 33-239).
T1 construct: also called cynomolgus IL-4R (capture setup); not shown: Fc part
The experiment in a line: SPR, capture setup: cynomolgus IL-4R-Fc captured, scFv as analyte. The protocol: (§1) Affinity of the 16 humanized scFvs (derived from 5 rabbit monoclonal antibodies) to human IL-4R was determined by SPR analysis on a T200 device (Biacore, GE Healthcare). Human IL-4R-Fc was captured via an anti-human IgG-Fc coupled to a carboxylmethylated dextran surface and the scFvs were injected as analyte. After each analyte injection cycle the sensor chip was regenerated and new antigen was captured. The scFvs were measured using a dose response multi-cycle kinetic assay with seven analyte concentrations ranging from 0.12 to 90 nM diluted in running buffer. Obtained sensorgrams were fitted using a 1:1 binding model.
(§2) Cross-reactivity to cynomolgus IL-4R was measured using the same setup as for the analysis of human IL-4R affinities, with the difference that cynomolgus IL-4R-Fc was captured instead of human IL-4R-Fc. To determine affinities for marmoset IL-4R, a direct setup was used since only extracellular domain (ECD) of marmoset IL-4R was available. Marmoset ECD was immobilized directly onto the sensor chip and a titration series of scFvs was injected as analyte. To allow for comparison between KD values obtained for cynomolgus and marmoset IL-4R, affinities to cynomolgus IL-4R ECD were also determined using a direct setup.

The next assay deals with T2, Marmoset IL-4R ECD (marmoset (Callithrix jacchus), UniProt Q0PIT7 26-232).
T2 construct: also called marmoset monkey IL-4R
T2 sequence (Q0PIT7 entry or part of it limits assumed): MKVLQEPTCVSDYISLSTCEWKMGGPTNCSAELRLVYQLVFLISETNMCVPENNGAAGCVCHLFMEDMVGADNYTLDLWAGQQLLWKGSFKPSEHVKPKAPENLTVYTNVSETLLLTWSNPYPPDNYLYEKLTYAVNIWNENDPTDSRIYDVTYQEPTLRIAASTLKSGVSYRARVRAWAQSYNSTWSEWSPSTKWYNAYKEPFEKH
The experiment in a line: SPR, direct setup: marmoset IL-4R ECD immobilized, scFv as analyte. On the procedure:
as §2
A general note: Surface plasmon resonance follows binding to a sensor surface in real time, without labels.

A further assay concerns the target T3, cynomolgus IL-4R ECD (cynomolgus monkey (Macaca fascicularis), UniProt A0A2K5V556 26-232).
T3 construct: immobilized directly on the sensor chip; also called cynomolgus IL-4R (direct setup)
The experiment in a line: SPR, direct setup: cynomolgus IL-4R ECD immobilized, scFv as analyte. The protocol: as §2

The target in another assay is T4, Biotinylated IL-4R (human, UniProt P24394 26-232, limits assumed, biotinylated).
T4 construct: also called human IL-4R; hIL-4R
As to the kind of experiment: competitive ELISA: IL-4 coated, biotinylated IL-4R preincubated with scFv. The source says:
Bound biotinylated IL-4R was then detected using streptavidin-HRP.
Potency of humanized scFvs was further determined using a competitive ELISA.
(In general: ELISA stands for enzyme-linked immunosorbent assay.)

The target in the next assay is T5, Human IL-4R-Fc (human, UniProt P24394 26-232).
T5 construct: not shown: Fc part (captured via anti-human IgG-Fc)
As to the kind of experiment: SPR (Biacore T200), human IL-4R-Fc captured via anti-human IgG-Fc, scFv as analyte, 1:1 model. The protocol: as §1

T3 sequence (A0A2K5V556 entry or part of it limits assumed): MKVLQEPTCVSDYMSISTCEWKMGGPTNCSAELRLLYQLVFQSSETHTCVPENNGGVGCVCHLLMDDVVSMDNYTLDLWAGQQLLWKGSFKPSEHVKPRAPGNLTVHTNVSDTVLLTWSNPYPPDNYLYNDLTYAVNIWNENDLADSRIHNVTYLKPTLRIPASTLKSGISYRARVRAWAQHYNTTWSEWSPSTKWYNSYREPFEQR

B1: PRO1517 (scFv)
scFv: DIQMTQSPSSLSASVGDRVTITCQASEDIESYLAWYQQKPGKAPKLLIYRASTLAYGVPSRFSGSGSGTDFTLTISSLQPEDFATYYCLGSSYSTGSNIFGTGTKVTVLGGGGGSGGGGSGGGGSGGGGSEVQLVESGGGLVQPGGSLRLSCAASGFSSSSAHYMCWVRQAPGKGLEWIGCIYAGSRGSTYYASWAKGRFTISRDNSKNTVYLQMNSLRAEDTAVYYCARAAFVNRGVSWIWPYYFSLWGQGTLVTVSS
notes: humanized scFv (VL-linker-VH), CDR graft of rabbit clone 44-34-C10; also called 44-34-C10-sc01; 44-34-C10 sc01
Consider B1, for which, in the assay with IL-4R on HEK-Blue cells, the “IC50, neutralization of hIL-4-induced signaling in reporter gene assay” value came to 1.44 ng/mL; the “IC50, neutralization of hIL-13-induced signaling in reporter gene assay” value stood at 1.83 ng/mL; the “rel. IC50 (IC50, dupilumab/IC50, test sample), hIL-4-induced signaling” value was 0.39 ratio; the “rel. IC50 (IC50, dupilumab/IC50, test sample), hIL-13-induced signaling” value was determined as 0.57 ratio. In addition, in the assay with cynomolgus IL-4R-Fc, the Kd amounted to 0.0946 nM, the koff was found to be 0.000182 s⁻¹ and the kon came to 1.92e+06 M⁻¹ s⁻¹. In the assay with Marmoset IL-4R ECD, the Kd came to 0.392 nM, the koff came out at 0.00105 s⁻¹ and the kon amounted to 2.67e+06 M⁻¹ s⁻¹. In the assay with cynomolgus IL-4R ECD, the Kd is 0.681 nM, the koff is 0.000404 s⁻¹ and the kon came out at 594000 M⁻¹ s⁻¹. In the assay with Biotinylated IL-4R, the IC50 stood at 0.54 ng/mL and the “rel. IC50 (IC50, dupilumab/IC50, test sample)” value stood at 3.46 ratio. In addition, in the assay with Human IL-4R-Fc, the Kd was found to be 0.0055 nM, the koff came to 1.95e-05 s⁻¹ and the kon is 3.55e+06 M⁻¹ s⁻¹.

B2: PRO1535 (scFv)
scFv: DIQMTQSPSSLSASVGDRVTITCQASEDIESYLAWYQQKPGKPPKLLIYRASTLAYGVPSRFSGSGSGTDFTLTISSLQPEDFATYYCLGSSYSTGSNIFGTGTKVTVLGGGGGSGGGGSGGGGSGGGGSESQLVESGGGLVQPGGSLRLSCAASGFSSSSAHYMCWVRQAPGKGLEWIACIYAGSRGSTYYASWAKGRFTISKDNSKNTVYLQMNSLRAEDTAVYFCARAAFVNRGVSWIWPYYFSLWGQGTLVTVSS
notes: humanized scFv (VL-linker-VH), Full graft of rabbit clone 44-34-C10; also called 44-34-C10-sc04; 44-34-C10 sc04
On to B2, for which, in the assay with IL-4R on HEK-Blue cells, the “IC50, neutralization of hIL-4-induced signaling in reporter gene assay” value worked out at 1.15 ng/mL; the “IC50, neutralization of hIL-13-induced signaling in reporter gene assay” value stood at 2.3 ng/mL; the “rel. IC50 (IC50, dupilumab/IC50, test sample), hIL-4-induced signaling” value was 1.02 ratio; the “rel. IC50 (IC50, dupilumab/IC50, test sample), hIL-13-induced signaling” value was 0.99 ratio. For the same molecule, in the assay with cynomolgus IL-4R-Fc, the Kd was determined as 0.165 nM, the koff came out at 0.000264 s⁻¹ and the kon came to 1.6e+06 M⁻¹ s⁻¹. In addition, in the assay with Marmoset IL-4R ECD, binding was characterised by a dissociation constant (Kd) of 0.787 nM, the koff was found to be 0.00254 s⁻¹ and the kon turned out to be 3.23e+06 M⁻¹ s⁻¹. In the assay with cynomolgus IL-4R ECD, this molecule gave a Kd of 0.376 nM, a koff of 0.000238 s⁻¹ and a kon of 634000 M⁻¹ s⁻¹. In addition, in the assay with Biotinylated IL-4R, the IC50 came out at 1.92 ng/mL and the “rel. IC50 (IC50, dupilumab/IC50, test sample)” value stood at 0.98 ratio. In the assay with Human IL-4R-Fc, this molecule returned a Kd of 0.0199 nM, a koff of 5.42e-05 s⁻¹ and an on-rate (kon) of 2.72e+06 M⁻¹ s⁻¹.

Values taken from patent US20250282880A1 (NUMAB THERAPEUTICS, published 2025).
